These results are taken from PMC9450512.

Several values for one entry are separate records, joined by “and”; a condition that tells them apart may be missing. Equal entries are not always repeated.

For the assay, the target named is Catalytic Domain of Human HDAC7 (cdHDAC7), biotinylated (human). Briefly: BLI. (In BLI a coated tip is dipped into the sample, and binding shifts an interference pattern.)

By Kd is commonly meant the concentration at which binding is half-saturated. On to “Ac-Leu-Gly-Lys(Ac)-NH2 (LGKAc), acetylated peptide derived from histone 4 lysine 12”, for which the dissociation constant Kd is 0.72 µM and 1 µM.
